Assay [1] has as its target T1, Fibronectin ED-B protein (human fibronectin extra domain B, N-terminal His-tag) (human, UniProt P02751 1266-1356, biotinylated with sulfo-NHS-SS-biotin for biopanning, input-phage ELISA and SPR on the streptavidin chip).
T1 construct: domain: ED-B; Expressed in E. coli BL21 from pET28b; also called biotinylated-EDB; not shown: N-terminal His-tag from the pET28b vector
Nature of the assay: SPR, synthetic bipodal peptide on ED-B. The protocol:
(§1) Bipodal-peptide binder peptides specific to ED-B, VEGF or nAchR which were repetitively found in DNA sequencing were synthesized from Anigen Inc. (Korea). Affinity was measured using BIAcore X instrument (Biacore AB, Uppsala, Sweden). ED-B and nAchR were immobilized on streptavidin (SA) chip (Biacore) by injecting 2,000 RU biotinylated-EDB. VEGF was immobilized on CM5 chip (Biacore) using EDC/NHS. PBS (pH 7.4) was used as a running buffer.
To verify cooperative effect of bipodal-peptide binder to antigen, we synthesized two peptides removing either N- or C-terminal region of peptide 2 to ED-B having excellent specificity in Table 3a for affinity measurement.
On the technique in general: Surface plasmon resonance follows binding to a sensor surface in real time, without labels.

Assay [2] concerns the target T2, BSA (UniProt P02769 25-607).
T2 construct: Control protein in the input-phage ELISA; also called bovine serum albumin
Description: phage ELISA, absorbance at 450 nm. On the technique in general: ELISA stands for enzyme-linked immunosorbent assay.

The target of assay [3] is T3, Streptavidin (UniProt P22629 37-163, limits assumed).
T3 construct: Control protein in the input-phage ELISA; also called straptavidin
T3 sequence (P22629 37-163 limits assumed): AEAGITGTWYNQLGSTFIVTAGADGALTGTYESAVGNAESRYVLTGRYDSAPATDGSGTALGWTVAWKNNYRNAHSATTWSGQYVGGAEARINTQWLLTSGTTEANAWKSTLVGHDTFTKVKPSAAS
Nature of the assay: phage ELISA, absorbance at 450 nm.

For assay [4], the target named is T1, Fibronectin ED-B protein (human …). Description: SPR (BIAcore X), biotinylated ED-B on SA chip. On the procedure:
as §1
(§2) The above-mentioned peptides were synthesized and their affinities to fibronectin ED-B, VEGF, VCAM1, nAchR and HAS were measured using SPR Biacore system (Biacore AB, Uppsala, Sweden).

Assay [5] has the same target. Description: SPR (BIAcore X), biotinylated ED-B on streptavidin chip, synthetic peptide as analyte. The protocol: as §1, §2
Assay [6] has the same target. Description: phage ELISA on 10 coated proteins (streptavidin, ED-B, acetylcholine α1, BSA, VCAM, TNF-α, thrombin, myoglobin, lysozyme, visfatin), anti-M13-HRP. The protocol:
Specificity of recombinant phages to each protein was carried out using ELISA. Each protein (5 μg/ml) was seeded into wells (50 μl per well) in a 96-well ELISA plate and next day, all wells were washed with 0.1% PBST (Tween-20) three times, and blocked at room temperature for 2 hrs using 2% skim milk. Then, the solution was completely removed and the plate was washed with 0.1% PBST three times. Recombinant phages containing the peptide of the present invention were thoroughly mixed with 2% BSA. Each mixture (100 μl) was divided into wells coated with 10 proteins and kept to stand at 27° C. for 2 hrs. After washing with 0.1% PBST 5 times, HRP-conjugated anti-M13 antibodies (1:1,000 dilution; GE Healthcare) were added to each well and incubated at 27° C. for 1 hr. After washing with 0.1% PBST 5 times, 100 μl TMB was divided into each well to induce colorimetric reaction, followed by stopping the reaction adding 100 μl of 1 M HCl. The absorbance was measured at 450 nm.

In assay [7] the target is T2, BSA. Nature of the assay: phage ELISA, absorbance at 450 nm. This is another data set of the same source.
Assay [8] concerns the target T4, Peptide fragment of nAchR (Nicotinic acetylcholine receptor), 32 mer, biotinylated (N-terminal biotin).
T4 construct: Synthesised by Anigen; Immobilised on a streptavidin chip for SPR; also called biotinylated nAchR; biotinylated-nAchR peptide
T4 peptide: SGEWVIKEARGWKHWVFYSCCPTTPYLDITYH
Description: SPR (BIAcore X), biotinylated nAchR peptide on SA chip. On the procedure:
as §1, §2

The target in assay [9] is T4, Peptide fragment of nAchR (Nicotinic …). Nature of the assay: SPR (BIAcore X), biotinylated nAchR peptide on streptavidin chip, synthetic peptide as analyte. On the procedure:
as §1, §2

Assay [10] concerns the target T5, GST-AR DBD protein (androgen receptor DNA binding domain with N-terminal GST) (UniProt P10275 556-636).
T5 construct: In ELISA and EMSA the text calls the protein AR-DBD or AR DBD protein; also called androgen receptor DBD; not shown: GST encoded by the pGEX-4T-1 vector, N-terminal
T5 sequence (looked up): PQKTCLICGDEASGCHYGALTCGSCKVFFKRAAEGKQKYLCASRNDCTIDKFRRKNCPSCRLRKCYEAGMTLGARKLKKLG
Nature of the assay: phage ELISA of single clones on AR-DBD against BSA. The protocol:
(§3) AR-DBD (10 μg/ml) and BSA (10 μg/ml) each was added to 30 wells (50 μl per well) in a 96-well ELISA plate and then kept to stand at 4° C. overnight. Next day, all wells were washed with 0.1% PBST three times, and blocked at room temperature for 2 hrs using 2% skim milk diluted with PBS. Then, the solution was removed and the plate was washed with 0.1% PBST three times. Phage peptide solution (100 μl) amplified from each clone was aliquoted to ED-B protein-bound wells and BSA protein-bound wells and kept to stand at 27° C. for 1.5 hrs. After washing with 0.1% PBST 10 times, HRP-conjugated anti-M13 antibodies (1:1,000 dilution; GE Healthcare) were added to each well and incubated at 27° C. for 1 hr. After washing with 0.1% PBST 5 times, 100 μl TMB was divided into each well to induce colorimetric reaction, followed by stopping the reaction adding 100 μl of 1 M HCl. The absorbance was measured at 450 nm to select phages which had the absorbance above 20-fold higher than BSA. XL1 cells were infected with these phages and spread in plate to produce 100-200 of plaques. […]
The phages recovered from the 5th biopanning step having the highest O/I ratio in each library were isolated as plaques. […] Most plaques were analyzed to show the absorbance value of AR-DBD higher than that of BSA. The DNA sequencing was performed for 20 clones showing the absorbance value above 5-fold higher than BSA. […]

For assay [11], the target named is T6, Human serum albumin (human, UniProt P02768 25-609).
T6 construct: Bought protein; also called HSA; HAS
T6 sequence (P02768 25-609 limits assumed): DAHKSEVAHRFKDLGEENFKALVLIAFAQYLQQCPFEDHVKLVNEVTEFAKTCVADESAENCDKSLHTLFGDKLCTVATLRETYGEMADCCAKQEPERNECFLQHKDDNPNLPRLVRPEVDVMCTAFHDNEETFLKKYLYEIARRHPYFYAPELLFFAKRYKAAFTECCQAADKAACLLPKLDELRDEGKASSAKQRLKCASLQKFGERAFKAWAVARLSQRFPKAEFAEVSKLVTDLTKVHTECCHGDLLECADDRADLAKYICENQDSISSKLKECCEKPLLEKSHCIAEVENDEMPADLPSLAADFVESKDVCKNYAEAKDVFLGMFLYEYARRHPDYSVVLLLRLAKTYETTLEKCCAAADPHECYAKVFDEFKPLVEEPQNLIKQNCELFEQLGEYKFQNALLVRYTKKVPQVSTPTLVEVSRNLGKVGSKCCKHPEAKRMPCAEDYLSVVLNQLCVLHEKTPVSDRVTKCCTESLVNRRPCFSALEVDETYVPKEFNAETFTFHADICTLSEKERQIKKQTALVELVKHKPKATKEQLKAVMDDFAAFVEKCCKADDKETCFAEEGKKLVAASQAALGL
Nature of the assay: SPR (Biacore).

The target in assay [12] is T3, Streptavidin. Description: phage ELISA, absorbance at 450 nm. This is another data set of the same source.
Assay [13] has as its target T6, Human serum albumin. Description: SPR (Biacore), synthetic peptide; immobilisation of HSA not described.
Assay [14] concerns the target T7, VEGF121 (human vascular endothelial growth factor) (human, UniProt P15692-9 27-147).
T7 construct: Immobilised on a CM5 chip by EDC/NHS for SPR and coated on plates for phage ELISA; also called VEGF-Trx cut with thrombin
T7 sequence (looked up): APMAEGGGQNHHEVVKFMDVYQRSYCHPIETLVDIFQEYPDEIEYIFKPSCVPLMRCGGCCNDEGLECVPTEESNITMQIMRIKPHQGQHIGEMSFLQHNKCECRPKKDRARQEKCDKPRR
Description: phage ELISA, absorbance at 450 nm.

In assay [15] the target is T7, VEGF121 (human vascular endothelial …). Nature of the assay: SPR (BIAcore X), VEGF on CM5 chip. On the procedure:
as §1, §2

Assay [16] has as its target T2, BSA. Description: phage ELISA, absorbance at 450 nm. The source holds these as a separate data set.
The target in assay [17] is T7, VEGF121 (human vascular endothelial …). Nature of the assay: SPR (BIAcore X), VEGF on CM5 chip, synthetic peptide as analyte. The protocol: as §1, §2
Assay [18] concerns the target T2, BSA. Description: phage ELISA, absorbance at 450 nm. The source holds these as a separate data set.
Assay [19] addresses T7, VEGF121 (human vascular endothelial …). Nature of the assay: phage ELISA, absorbance at 450 nm. The source holds these as a separate data set.
In assay [20] the target is T3, Streptavidin. Nature of the assay: phage ELISA, absorbance at 450 nm. The source holds these as a separate data set.
The next assay addresses STAT3 protein (UniProt P40763 1-770, limits assumed). Nature of the assay: phage ELISA of single clones on STAT3 against streptavidin. The protocol: as §3, with “STAT3 (10 μg/ml), BSA (10” for “AR-DBD (10”, “and streptavidin” for “and BSA”, “to STAT3-bound” for “to ED-B protein-bound”
The phages recovered from the 4th biopanning step having the highest O/I ratio in each library were isolated as plaques. […] The DNA 10 sequencing was performed for 6 clones showing the absorbance value above 2-fold higher than streptavidin. […]

Like-named read-outs stand apart in the source and are kept apart here.

T2 sequence (P02769 25-607 limits assumed): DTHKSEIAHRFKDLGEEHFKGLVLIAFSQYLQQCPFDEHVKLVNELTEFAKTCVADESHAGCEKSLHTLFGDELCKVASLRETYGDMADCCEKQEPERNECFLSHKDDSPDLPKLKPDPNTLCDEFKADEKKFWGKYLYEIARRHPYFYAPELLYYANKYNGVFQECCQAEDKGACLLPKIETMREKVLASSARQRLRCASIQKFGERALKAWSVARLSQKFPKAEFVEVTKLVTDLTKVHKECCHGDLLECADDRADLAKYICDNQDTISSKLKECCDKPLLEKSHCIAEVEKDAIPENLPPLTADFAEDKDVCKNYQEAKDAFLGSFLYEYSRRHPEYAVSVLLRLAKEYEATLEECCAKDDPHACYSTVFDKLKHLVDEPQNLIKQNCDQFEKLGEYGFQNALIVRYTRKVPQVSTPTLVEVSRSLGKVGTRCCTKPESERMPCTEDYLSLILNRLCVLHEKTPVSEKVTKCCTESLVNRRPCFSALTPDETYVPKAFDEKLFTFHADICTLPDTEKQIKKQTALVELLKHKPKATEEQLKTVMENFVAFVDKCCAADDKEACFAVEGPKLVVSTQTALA
T1 sequence (P02751 1266-1356): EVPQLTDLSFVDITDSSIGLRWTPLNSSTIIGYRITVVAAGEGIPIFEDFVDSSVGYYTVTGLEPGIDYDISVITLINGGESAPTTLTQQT
Sequence of STAT3 protein (P40763 whole entry): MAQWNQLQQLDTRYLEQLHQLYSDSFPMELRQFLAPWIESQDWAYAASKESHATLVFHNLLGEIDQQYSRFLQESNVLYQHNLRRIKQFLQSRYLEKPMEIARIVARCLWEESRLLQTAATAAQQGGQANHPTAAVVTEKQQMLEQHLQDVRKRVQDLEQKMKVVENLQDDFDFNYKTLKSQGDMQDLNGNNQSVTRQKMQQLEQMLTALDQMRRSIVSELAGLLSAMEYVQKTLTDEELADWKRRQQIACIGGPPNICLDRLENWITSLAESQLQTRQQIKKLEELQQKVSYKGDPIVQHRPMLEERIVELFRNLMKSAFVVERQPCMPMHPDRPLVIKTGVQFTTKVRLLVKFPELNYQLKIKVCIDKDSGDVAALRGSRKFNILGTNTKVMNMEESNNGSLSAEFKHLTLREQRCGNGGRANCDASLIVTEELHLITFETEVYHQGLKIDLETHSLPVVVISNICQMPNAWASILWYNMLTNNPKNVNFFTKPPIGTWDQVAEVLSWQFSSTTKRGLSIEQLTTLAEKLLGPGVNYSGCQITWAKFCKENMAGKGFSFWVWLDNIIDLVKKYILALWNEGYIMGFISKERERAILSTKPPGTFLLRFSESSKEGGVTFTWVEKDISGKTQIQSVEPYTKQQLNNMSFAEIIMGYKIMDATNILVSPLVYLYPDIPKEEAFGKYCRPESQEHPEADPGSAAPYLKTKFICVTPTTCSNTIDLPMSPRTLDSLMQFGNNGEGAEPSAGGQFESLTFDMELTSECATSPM

For HCSSAVGSWTWENGKWTWKGIIRLEQ [Peptide 2 specific to fibronectin ED-B (Table 3a), bipodal-peptide binder with tryptophan zipper], the Kd in [1] worked out at 43 nM; in assay [5], 75 nM. For the same molecule, the binding result in the assay with BSA [2] and in the assay with Streptavidin [3] was “no binding” in each case. In addition, in assay [4], the koff was found to be 0.0008 s⁻¹. This molecule also returned a kon in assay [4] of 10000 M⁻¹ s⁻¹. Moreover, the “fold absorbance over other proteins” value in [6] is over 30 fold.

As to EASFWLGSWTWENGKWTWKGKGTLNR [Peptide 1 specific to nAchR (Table 3d), bipodal-peptide binder], in the assay with BSA [7], the binding result is “no binding”. In assay [8], the koff amounted to 0.0085 s⁻¹ and the kon came to 110000 M⁻¹ s⁻¹. Besides, the Kd in [9] amounted to 73 nM.

As for GGHNIQGSWTWENGKWTWKGWQHIWG [Peptide 2 from the AR-DBD biopanning (6/20 clones), bipodal-peptide binder], in assay [10], the “fold absorbance over BSA” value was over 5 fold.

In the assay with Human serum albumin [11], AASPYKGSWTWENGKWTWKGGWRMKM [Peptide 1 specific to HSA (Table 3e), bipodal-peptide binder] yielded a dissociation rate constant (koff) of 0.02 s⁻¹ and a kon of 250000 M⁻¹ s⁻¹. Further, in the assay with Streptavidin [12], the binding result is listed as “no binding”. In the assay with Human serum albumin [13], this molecule showed a Kd of 115 nM.

On to HSHAFYGSWTWENGKWTWKGNPGWWT [Peptide 1 specific to MyD88 (Table 3f), bipodal-peptide binder], for which the binding result in assay [14] was “no binding”.

Turning to HANFFQGSWTWENGKWTWKGWKYNQS [Peptide 1 specific to VEGF (Table 3b), bipodal-peptide binder], in assay [15], the koff was found to be 0.013 s⁻¹ and the kon was determined as 220000 M⁻¹ s⁻¹. Moreover, the binding result with BSA [16] is on record as “no binding”. This molecule showed a Kd in assay [17] of 60 nM.

For the molecule HGFQWPGSWTWENGKWTWKGAYQFLK (also called BPB2) [STAT3-specific bipodal-peptide binder Peptide 2], the binding result (with BSA [18]; in assay [19]; with Streptavidin [20]) was “no binding” throughout. The “fold absorbance over streptavidin” value with STAT3 protein was over 2 fold.

As a reminder, the Kd is a measure of binding affinity in units of concentration. Broadly, the koff is a measure of how fast the partners let go of each other. Low readings indicate a long-lived complex, high ones a short-lived complex. As a reminder, the kon is the second-order rate constant of association. A low value points to slow association.

For the origin of these results see patent publication US20120309934A1 (GWANGJU INSTITUTE OF SCIENCE AND TECHNOLOGY, published 2012).
